Test results: the supplement of paper PMC10065799, “High-throughput profiling of sequence recognition by tyrosine kinases and SH2 domains using bacterial peptide display” (eLife, 2023)

The sequences below were run on AncSZ (assay: phosphorylation enrichment, bacterial display (enrichment ratio); higher = better substrate or ligand; peptides without Tyr show the background).
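Also: 11-residue human phosphosite peptides and single-mutation variants displayed on the E. coli surface, counted by deep sequencing, each peptide's frequency after selection divided by its frequency in the unselected input library; frequency after pTyr selection over input frequency; kinase dosed for 20-30% of maximal phosphorylation in three min.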

Sequence	phosphorylation enrichment
GKSHIYFWTLD [EML2_Y230_E235D]	1.17
KWTVDYLGQVG [TYW5_Y48_S50G]	0.913
LNCIYYKDQTG [RS1_Y166_W163C]	3.56
GMSQAYSFSQR [DES_Y5_S7F]	0.761
ADSLRYIYPKL [EIF2B3_Y92]	0.552
FQLENYCNGGG [INS_Y108_YF]	1.34
GIKAAYEAELG [LMNA_Y81]	0.713
FSMGCYEIFLG [HMGCL_Y198_S201Y_YF]	2.87
TYEPNYGTVKQ [RAPGEF6_Y1447]	0.864
MDNQEYKDAYK [BRDT_Y331]	0.932
DYSLKYPTDIP [APC_Y1183_A1184P]	0.867
AFEQQYSPIPR [NOX1_Y373]	0.767
KELANYYKLHH [AK7_Y390]	0.708
SVDRDYVLKSA [HTATIP2_Y111_R106S]	0.66
NNPAYYVLEGV [INPPL1_Y987]	1.15
SSDPDYRAAVD [GLB1_Y154_L155R]	0.926
TNIKRYHIAKV [HARS1_Y150]	0.408

Sequence	phosphorylation enrichment
MKKKIYAMGGG [GAN_Y424]	0.397
VQDPAYLRDID [OPRK1_Y369]	1.16
DCAAIYGNEPD [AKR1A1_Y50_E55D]	1.35
NWGSPYKSDGC [ZNF347_Y261_N264D]	0.864
SRNKPYISWPS [CDC42BPB_Y1638]	0.583
QKDIFYGLRSL [IGSF10_Y126_T124I]	0.894
LENSTYQYICV [CRB1_Y760_R764C]	3.88
ASRKYYAMKIL [AKT3_Y174_G171R]	0.505
VLTPKYRGGGG [HBA1_Y141_S139P]	0.498
SLNEEYTKNKT [MSH2_Y563]	0.716
DWRQEYVLNES [TGM1_Y267]	1.23
EAESWYQTKYE [KRT75_Y342]	1.15
HNMPIYEGYAL [ACTA1_Y168_V165M]	1.3
FFNSEYGELSE [FLT4_Y1337_YF]	1.2
QFPDIYAREEV [CRX_Y67_V66I_YF]	1.82
NTADYYDLYGG [PTPN11_Y63_G60A]	3.44

What follows are sequences tested against EPHB1 (UniProt P54762) in the same assay as above.
Chain of EPHB1 (P54762 whole entry, looked up): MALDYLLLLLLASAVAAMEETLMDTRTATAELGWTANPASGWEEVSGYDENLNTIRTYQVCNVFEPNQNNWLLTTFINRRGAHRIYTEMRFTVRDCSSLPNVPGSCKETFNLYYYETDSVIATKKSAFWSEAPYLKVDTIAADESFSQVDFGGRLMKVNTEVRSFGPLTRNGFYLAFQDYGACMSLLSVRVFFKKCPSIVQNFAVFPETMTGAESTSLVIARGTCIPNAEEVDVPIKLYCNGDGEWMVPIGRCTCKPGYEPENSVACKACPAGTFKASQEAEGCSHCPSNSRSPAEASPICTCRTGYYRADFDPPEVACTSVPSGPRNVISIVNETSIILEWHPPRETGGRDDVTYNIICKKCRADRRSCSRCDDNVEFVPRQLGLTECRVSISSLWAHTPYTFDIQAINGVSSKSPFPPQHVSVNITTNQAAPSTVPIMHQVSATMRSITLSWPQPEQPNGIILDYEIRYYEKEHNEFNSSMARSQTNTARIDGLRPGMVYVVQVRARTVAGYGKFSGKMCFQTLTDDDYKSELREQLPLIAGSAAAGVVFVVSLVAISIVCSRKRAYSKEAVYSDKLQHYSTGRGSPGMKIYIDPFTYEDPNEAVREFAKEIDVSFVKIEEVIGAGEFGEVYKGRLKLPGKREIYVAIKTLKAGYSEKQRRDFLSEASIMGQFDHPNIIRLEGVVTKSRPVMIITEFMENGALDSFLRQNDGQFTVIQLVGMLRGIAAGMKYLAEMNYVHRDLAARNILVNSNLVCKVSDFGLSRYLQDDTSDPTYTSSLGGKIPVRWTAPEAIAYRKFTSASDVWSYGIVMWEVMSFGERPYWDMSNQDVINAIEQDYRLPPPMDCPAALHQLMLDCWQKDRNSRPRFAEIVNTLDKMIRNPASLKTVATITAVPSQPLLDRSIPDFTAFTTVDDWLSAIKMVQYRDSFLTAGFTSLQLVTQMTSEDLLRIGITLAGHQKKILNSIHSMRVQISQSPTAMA

Sequence	phosphorylation enrichment
GKSHIYFWTLD [EML2_Y230_E235D]	0.622
KWTVDYLGQVG [TYW5_Y48_S50G]	0.515
LNCIYYKDQTG [RS1_Y166_W163C]	3.64
GMSQAYSFSQR [DES_Y5_S7F]	0.317
ADSLRYIYPKL [EIF2B3_Y92]	0.416
FQLENYCNGGG [INS_Y108_YF]	0.677
GIKAAYEAELG [LMNA_Y81]	0.531
FSMGCYEIFLG [HMGCL_Y198_S201Y_YF]	2.01
TYEPNYGTVKQ [RAPGEF6_Y1447]	1.54
MDNQEYKDAYK [BRDT_Y331]	0.546
DYSLKYPTDIP [APC_Y1183_A1184P]	0.618
AFEQQYSPIPR [NOX1_Y373]	0.404
KELANYYKLHH [AK7_Y390]	4.12
SVDRDYVLKSA [HTATIP2_Y111_R106S]	0.546
NNPAYYVLEGV [INPPL1_Y987]	0.764
SSDPDYRAAVD [GLB1_Y154_L155R]	0.508
TNIKRYHIAKV [HARS1_Y150]	0.301

Sequence	phosphorylation enrichment
MKKKIYAMGGG [GAN_Y424]	0.335
VQDPAYLRDID [OPRK1_Y369]	0.45
DCAAIYGNEPD [AKR1A1_Y50_E55D]	0.668
NWGSPYKSDGC [ZNF347_Y261_N264D]	0.486
SRNKPYISWPS [CDC42BPB_Y1638]	0.417
QKDIFYGLRSL [IGSF10_Y126_T124I]	0.672
LENSTYQYICV [CRB1_Y760_R764C]	11.9
ASRKYYAMKIL [AKT3_Y174_G171R]	0.367
VLTPKYRGGGG [HBA1_Y141_S139P]	0.328
SLNEEYTKNKT [MSH2_Y563]	0.369
DWRQEYVLNES [TGM1_Y267]	0.55
EAESWYQTKYE [KRT75_Y342]	0.641
HNMPIYEGYAL [ACTA1_Y168_V165M]	19.7
FFNSEYGELSE [FLT4_Y1337_YF]	0.566
QFPDIYAREEV [CRX_Y67_V66I_YF]	0.628
NTADYYDLYGG [PTPN11_Y63_G60A]	14.9

Each sequence was assayed against EPHB2 (UniProt P29323) in the same assay as above.
Chain of EPHB2 (P29323 whole entry, looked up): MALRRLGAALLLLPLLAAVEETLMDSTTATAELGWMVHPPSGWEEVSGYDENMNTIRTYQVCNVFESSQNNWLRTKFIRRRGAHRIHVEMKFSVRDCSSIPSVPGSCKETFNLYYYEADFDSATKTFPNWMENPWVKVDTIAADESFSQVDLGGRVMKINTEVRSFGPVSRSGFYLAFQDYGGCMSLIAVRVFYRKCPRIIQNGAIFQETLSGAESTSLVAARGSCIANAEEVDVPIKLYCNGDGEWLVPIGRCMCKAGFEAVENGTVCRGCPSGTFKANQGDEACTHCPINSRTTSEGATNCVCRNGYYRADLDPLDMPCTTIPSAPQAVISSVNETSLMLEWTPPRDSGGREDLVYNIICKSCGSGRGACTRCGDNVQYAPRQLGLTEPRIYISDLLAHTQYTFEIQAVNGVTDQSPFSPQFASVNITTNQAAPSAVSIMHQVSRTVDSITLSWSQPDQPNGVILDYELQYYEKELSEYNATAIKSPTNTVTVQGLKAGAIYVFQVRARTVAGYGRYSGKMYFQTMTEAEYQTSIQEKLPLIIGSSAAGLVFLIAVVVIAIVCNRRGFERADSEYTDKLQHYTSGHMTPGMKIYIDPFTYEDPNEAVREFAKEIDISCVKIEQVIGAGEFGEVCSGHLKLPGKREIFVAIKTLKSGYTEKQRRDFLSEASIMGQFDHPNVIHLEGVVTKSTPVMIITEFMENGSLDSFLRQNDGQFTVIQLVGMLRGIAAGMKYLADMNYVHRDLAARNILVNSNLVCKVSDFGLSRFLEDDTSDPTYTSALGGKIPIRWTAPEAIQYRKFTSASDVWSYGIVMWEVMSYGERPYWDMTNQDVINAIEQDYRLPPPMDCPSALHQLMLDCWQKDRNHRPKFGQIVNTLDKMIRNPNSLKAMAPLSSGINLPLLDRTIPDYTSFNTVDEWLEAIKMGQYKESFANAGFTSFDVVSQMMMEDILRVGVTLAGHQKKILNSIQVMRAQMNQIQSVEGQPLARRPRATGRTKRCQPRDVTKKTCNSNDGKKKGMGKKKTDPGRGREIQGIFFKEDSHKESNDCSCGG

Sequence	phosphorylation enrichment
GKSHIYFWTLD [EML2_Y230_E235D]	0.523
KWTVDYLGQVG [TYW5_Y48_S50G]	0.444
LNCIYYKDQTG [RS1_Y166_W163C]	1.15
GMSQAYSFSQR [DES_Y5_S7F]	0.453
ADSLRYIYPKL [EIF2B3_Y92]	0.362
FQLENYCNGGG [INS_Y108_YF]	0.458
GIKAAYEAELG [LMNA_Y81]	0.507
FSMGCYEIFLG [HMGCL_Y198_S201Y_YF]	2.07
TYEPNYGTVKQ [RAPGEF6_Y1447]	5.21
MDNQEYKDAYK [BRDT_Y331]	0.402
DYSLKYPTDIP [APC_Y1183_A1184P]	0.478
AFEQQYSPIPR [NOX1_Y373]	0.512
KELANYYKLHH [AK7_Y390]	1.89
SVDRDYVLKSA [HTATIP2_Y111_R106S]	0.403
NNPAYYVLEGV [INPPL1_Y987]	0.69
SSDPDYRAAVD [GLB1_Y154_L155R]	0.589
TNIKRYHIAKV [HARS1_Y150]	0.322

Sequence	phosphorylation enrichment
MKKKIYAMGGG [GAN_Y424]	0.302
VQDPAYLRDID [OPRK1_Y369]	0.657
DCAAIYGNEPD [AKR1A1_Y50_E55D]	0.726
NWGSPYKSDGC [ZNF347_Y261_N264D]	0.51
SRNKPYISWPS [CDC42BPB_Y1638]	0.395
QKDIFYGLRSL [IGSF10_Y126_T124I]	0.616
LENSTYQYICV [CRB1_Y760_R764C]	8.2
ASRKYYAMKIL [AKT3_Y174_G171R]	0.338
VLTPKYRGGGG [HBA1_Y141_S139P]	0.372
SLNEEYTKNKT [MSH2_Y563]	0.354
DWRQEYVLNES [TGM1_Y267]	0.817
EAESWYQTKYE [KRT75_Y342]	0.655
HNMPIYEGYAL [ACTA1_Y168_V165M]	25.5
FFNSEYGELSE [FLT4_Y1337_YF]	0.567
QFPDIYAREEV [CRX_Y67_V66I_YF]	1.21
NTADYYDLYGG [PTPN11_Y63_G60A]	14.7

The sequences below were run against FGFR1 (UniProt P11362) in the same assay as above.
Chain of FGFR1 (P11362 whole entry, looked up): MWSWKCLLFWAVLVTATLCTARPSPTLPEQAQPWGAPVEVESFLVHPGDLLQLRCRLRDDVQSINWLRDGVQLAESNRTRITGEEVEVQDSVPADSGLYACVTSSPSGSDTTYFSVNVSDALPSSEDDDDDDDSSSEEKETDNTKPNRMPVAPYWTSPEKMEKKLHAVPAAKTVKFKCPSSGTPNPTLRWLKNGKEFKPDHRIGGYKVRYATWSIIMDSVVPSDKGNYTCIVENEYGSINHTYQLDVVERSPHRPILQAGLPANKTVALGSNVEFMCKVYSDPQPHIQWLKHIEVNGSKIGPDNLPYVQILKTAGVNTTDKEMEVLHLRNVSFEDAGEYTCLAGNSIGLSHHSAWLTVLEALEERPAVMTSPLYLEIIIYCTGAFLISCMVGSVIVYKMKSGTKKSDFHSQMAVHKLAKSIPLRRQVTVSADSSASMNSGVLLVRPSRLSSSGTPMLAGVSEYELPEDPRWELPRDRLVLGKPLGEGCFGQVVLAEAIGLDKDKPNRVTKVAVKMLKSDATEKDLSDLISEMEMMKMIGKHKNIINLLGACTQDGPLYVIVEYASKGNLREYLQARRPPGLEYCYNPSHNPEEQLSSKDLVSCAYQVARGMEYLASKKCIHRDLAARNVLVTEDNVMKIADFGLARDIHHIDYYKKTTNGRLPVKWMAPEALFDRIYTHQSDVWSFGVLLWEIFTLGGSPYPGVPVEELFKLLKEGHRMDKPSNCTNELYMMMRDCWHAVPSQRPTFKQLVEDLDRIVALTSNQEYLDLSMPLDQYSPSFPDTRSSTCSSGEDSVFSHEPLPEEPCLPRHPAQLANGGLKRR

Sequence	phosphorylation enrichment
GKSHIYFWTLD [EML2_Y230_E235D]	1.07
KWTVDYLGQVG [TYW5_Y48_S50G]	0.531
LNCIYYKDQTG [RS1_Y166_W163C]	2.69
GMSQAYSFSQR [DES_Y5_S7F]	0.392
ADSLRYIYPKL [EIF2B3_Y92]	0.354
FQLENYCNGGG [INS_Y108_YF]	0.601
GIKAAYEAELG [LMNA_Y81]	0.502
FSMGCYEIFLG [HMGCL_Y198_S201Y_YF]	0.95
TYEPNYGTVKQ [RAPGEF6_Y1447]	0.553
MDNQEYKDAYK [BRDT_Y331]	0.485
DYSLKYPTDIP [APC_Y1183_A1184P]	0.691
AFEQQYSPIPR [NOX1_Y373]	1.07
KELANYYKLHH [AK7_Y390]	2.93
SVDRDYVLKSA [HTATIP2_Y111_R106S]	0.487
NNPAYYVLEGV [INPPL1_Y987]	15.9
SSDPDYRAAVD [GLB1_Y154_L155R]	0.556
TNIKRYHIAKV [HARS1_Y150]	0.301

Sequence	phosphorylation enrichment
MKKKIYAMGGG [GAN_Y424]	0.376
VQDPAYLRDID [OPRK1_Y369]	0.533
DCAAIYGNEPD [AKR1A1_Y50_E55D]	0.638
NWGSPYKSDGC [ZNF347_Y261_N264D]	0.562
SRNKPYISWPS [CDC42BPB_Y1638]	0.469
QKDIFYGLRSL [IGSF10_Y126_T124I]	0.515
LENSTYQYICV [CRB1_Y760_R764C]	14.1
ASRKYYAMKIL [AKT3_Y174_G171R]	0.475
VLTPKYRGGGG [HBA1_Y141_S139P]	0.348
SLNEEYTKNKT [MSH2_Y563]	0.324
DWRQEYVLNES [TGM1_Y267]	0.878
EAESWYQTKYE [KRT75_Y342]	0.491
HNMPIYEGYAL [ACTA1_Y168_V165M]	0.465
FFNSEYGELSE [FLT4_Y1337_YF]	0.479
QFPDIYAREEV [CRX_Y67_V66I_YF]	1.15
NTADYYDLYGG [PTPN11_Y63_G60A]	16.2
